This note sets out measurements from the nanobody polyreactivity screen of Harvey et al. (2022).

This data set is described as follows: yeast display, Sf9 membrane polyspecificity reagent, FACS + sequencing; frameworks hold sequencing errors. Summed up:
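Nanobodies from a synthetic yeast display library (Saccharomyces cerevisiae BJ5465), induced 36–48 hours with galactose, were stained 1 hour at 4 °C with 10% biotinylated, detergent-solubilized Sf9 membrane reagent, enriched on streptavidin microbeads, then FACS-sorted. Anti-HA (expression) and streptavidin (reagent binding) fluorescence set low and high (top ~1%) gates. Polyreactivity labels come from the gate of origin. Genes were colony-PCR amplified, MiSeq 2 × 250 sequenced and filtered by CDR length.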
For “QVQLVESGGGLVQAGGSLRLSCAASGFFFDEYAMGWYRLAPGKERELVAAIDVGGSTYYADSVKGRFTISRDNAKNTVYLQMNSLKPEDTAVYYCARDAFSVSDFSYASIEYDYWGQGTQVTVSS”, the “polyreactivity (PSR sort gate)” value is on record as “low polyreactivity”.

Regarding “QVQLVESGGGLVQAGGSLRLSCAASGSTLAIYAMGWYRQAPGKERELVAAISRSGGTTYYADSVKGRFTISRDNAKNTVYLQMNSLKPEDTAVYYCYPYFWYPDGYTYDYWGQGTQVTVSS”, the “polyreactivity (PSR sort gate)” value is on record as “high polyreactivity”. Turning to “QVQLVESGGGLVQAGGSLRLSCAASGRTFGVYAMGWYRQAPGKESELVAAISRLAGNTYYADSVKGRFTISRDNAKNTVYLQMNSLKPEDTAVYYCAADFSRQYGYWGQGTQVTVSS”, the “polyreactivity (PSR sort gate)” value is on record as “high polyreactivity”. With “QVQLVEAGGGLVQAGGSLRLSCAASGYTFGPNAMGWYRQAPGKEREFVAAISWSGTSTYYADYVKGRFTISRDNAKNTDYLQMNSLKPEDTAVYYCAARSYRYVSRREYWGQGTLVTVSS” the entry was “high polyreactivity”; with “QDQLVESCGGLVQAGGSHRLTCAASGGTSWIYAMGWYRQAPRKARELVAVITWSGGSTYYADSVKGRFTISRDTAKNTVYLQMNSLKPEDTAVYYCATDYTGKWKDHYYYWGQGTQVTVSS”, “low polyreactivity”. With “QVQLVESGGGLVQAGGSLRLSCAASGRTFVGNAMGWYRQAPGKERELVAAISGRGGSTKYADSVKGRFTISRDYAKNTVYLQMNSLKPEYTAVYYCNAPRNYYKNRAYEYWGQGTKVTVSS” the entry was “high polyreactivity”; with “QVQLVESGGGLVQAGGSLRLSCAASGITFGSYAMGRYRQAPGKERELVAAIDTSGDDTYYADSVKGRFTISRDNAKNTVYLQMNSLKPEDTAVYYCAAEFPSAEVDYWGQGTQVTVSS”, “low polyreactivity”; with “QVQLVESGGGLVQAGGSLRLSCAASGRIFWGYAMGWYRQAPGKERELVAGITTGGSTKYADSVKGRFTISRDNAKNTVYLQMNSLKPEDTAVYYCAATGKWYHFYHYGYWGQGTQVTVSS”, “low polyreactivity”. Consider “QVQLLESGGGLVQAGGSLRLSCDASGSISYHNAMGWYRQAPGKERELVASITSGSSTYYADSVKGSFTISRDNAKNTVYLQMNSLKPEDTAVYYCAAQDYSPYERGRDYWGQGTQVTVSS”, for which the “polyreactivity (PSR sort gate)” value is given as “low polyreactivity”.

As for “QLQLEESGRGLVQAGGSLRLSCAASGSIFYSNTMGWYRQAPGKERELVAAISTSDTSTYYADSVKGRFTISREKAKNTVYLQMNSLKPEDTAVYYCNAVGSIVLYGYWGQGTQVTVSS”, the “polyreactivity (PSR sort gate)” value is “low polyreactivity”.

Regarding “QVQLVESGGGLVQAGGSLRLSCAASGRTLISYAMGWYRQAPGKERELVAAISWGGSSTYYADSVKGRFTISGDNAKNTVYLQMNSLKPEDTAVYYCAAVSYRGRGLSRYVAYGYKYDYWGQGTQVTVSS”, the “polyreactivity (PSR sort gate)” value is listed as “high polyreactivity”. Turning to “QVQLVESGGGLVQAGGSLRLSCAASGYTFAGNAMGWYRQAPGKERELVAAISRSGGRTYYAVSVKGRFTISRDNAKNTVYLQMNSLKPEDTAVYYCAAYFPRTLFEFGYWGQGTQVTVSS”, the “polyreactivity (PSR sort gate)” value is recorded as “high polyreactivity”. Regarding “QVQLVESGGGLVQAGGSLRLSCAASGLIFHKNAMGWYRQAPGKERELVATITSGGNTNYADSVKGRFTISRDNAKNTVYLQMNSLKPEDTAVYYCAKDTHLLNEHSGTSREYDYWGQGTQVTVSS”, the “polyreactivity (PSR sort gate)” value is “low polyreactivity”. In the case of “QVQLVETGGGLVQAGGSLRLSCAASGRPFHRYALGWYRQAPGKDRALGAAISRGGITYYADSVKGRFTISRDNAKNTVYLQMNSLKPEDTAVYYCAALYRYYHESSPFDYWGQGTQVTVSS”, the “polyreactivity (PSR sort gate)” value is “high polyreactivity”. With “QVQLVESGGGLVQAGGSLRLSCAASGRIFRWYAMGWYRQAPGKERELVASISSGGSTNYADSVKGRFTISRDNAKNTVYLQLNSLKPEDTAVYYCAADFATPGPAYDYWGEGTQVTVSS” the entry was “low polyreactivity”; with “QVQIVESGGGLVQAGGSLRLTCAASGSIFTVYAMGWYRQEPGKERELVAAISSGASTNYADTVKGRFTISRDNATNTVYLQMNSLKPEDTAVYYFAARLYARRLYDYWGQGSQVTVSS”, “low polyreactivity”; with “QVQLVESGGGLVQAGGSLRLSCAASGSIFSWYTMGWYRQAPGKERELVARITTSGGTSTYYADSVKGRFTISRDNAKNTVYLQMNSLKPEDTAVYYCAADSPTSLYEYWGQGTQVTVSS”, “high polyreactivity”. With “QVQLVESWGGLVQAGGSLRLSCAASGSTFGKYFMGWYRQAHGKERELVAAISLSGGSTYYADSVKGRFTISRDKAKNTVYLQMNSLKPEDTAVYYCATVGYGYDYWGQGNQVTVSS”, the “polyreactivity (PSR sort gate)” value is listed as “high polyreactivity”. For the sequence “QVQIVESGGGLVQAGGSLRLSCAASGSTFSYNAMGWYRQAPGKERELVATISNTDSTNYADSVKGRFTISRDNAKNTLYLQMNSLKPEDTSVYSCAAVVSTVDGMEYWGQGTQVNVSS”, the “polyreactivity (PSR sort gate)” value was “low polyreactivity”. On to “QVQLVESGGGLVQAGGSLRLSCAASGRTFRRNAMGWYRQAPGKERELVAAITRSGGSTYYADSVKGRFTISRDNAKNTVYLQMNSLKPEDTAVYYCAAGTYVGLKTQYDYWGQGTQVTVSS”, for which the “polyreactivity (PSR sort gate)” value is “high polyreactivity”. As to “QVQLLESGVGLVQAGGSLRLSCAASGFSFGAYTLGWYRQAPRKERELVAAIRGSGGSTYYADSVKGRFTISRDNAKNTVYFQINSLKPDDTAVYYCAKTLTYGFRRYDYWGQGTQVTVSS”, the “polyreactivity (PSR sort gate)” value is reported as “high polyreactivity”. “QVQLQESGGVLVQAGGSLRLSCAASGNILDADIMGWYRQAPGKERELVASITDGGSTNYADSVKGRFTISRDNAKNTVYLQMNSLKPEDTAVYYCAAIAYPDIPTYFDYDSEYFYWGQGTQVTVSS”: the “polyreactivity (PSR sort gate)” value is given as “low polyreactivity”. With “QDQLGESGGGLVQAGGSLRLSCPASGFTVSNNVMGWSRQAPGKERELVADITWSGDGTYYADSVKGRFTISRDNAKKSVYLQMNSLKTEDTAVYYCNARYGKEYDYWGQGTQVTVSS” the entry was “low polyreactivity”. With “QVQLVESGGGLVQAGGCLRLSCAASGRTFPRYAMGWYIQAPGKVRELVAVISFSGDSTSYADSVKGRFTISRDTAKNTVYIQMNSRKPEDTAVYYCIADYKSTVFRYSGSRNYWGQGTQVTVSS” the entry was “low polyreactivity”; with “QVQLVESGGGLVQAGGSLRLSCAASGRTFQTNVMGWYRQAPGEERELVAAITLSGGSTNYADSVKGRFSISRDNAMYTVYLQMNSLKPEDTAVYYCNAERRYRHQWTPHYEYDYWGQGTQVTVSS”, “low polyreactivity”. With “QVQLVESGGGLVQAGGSLRLSCAASGRIFRVYAMGWYRQAPGKERELVAAIRWTGGSTYYADSVKGRFKISRDNAKNTVYLQMNSLKPEDTAVYYCAAGRYYSDGSRTIYDYWGQGTQVTVSS” the entry was “low polyreactivity”.

As to “QVQLVESGGGLVQAGGSLRLSCAASGSTFQTYAMGWYRQAPGKERELVAAITSGGSTNYADSVKGRFTISRDNAKNTVYLQMNSLKPEDTAVYYCAVRQIYQTSDHRLQYDYWGQGTQVTVSS”, the “polyreactivity (PSR sort gate)” value is on record as “low polyreactivity”. As to “QVQLVESGGGLVQAGGSLRLSCAASGFTIYRNAMGWYRQAPGKERELVARIRRTGGRTYYADSVKGRFTISRDNAKNTVNLQMNSLKPEDTAVYYCAAYPGPGARYYYWGQGTQVTVSS”, the “polyreactivity (PSR sort gate)” value is “high polyreactivity”. Consider “QVQLVESGGGLVQAGGSLRLICAASGSTFTQNAMGWYRQAPGKERELVAAISSSGTRTYYADSVKGRFTISRDNAKNTVYLQMNSLKPEDTAVYYCAATVYPSVYGENHYGYWGQGTKVTVSS”, for which the “polyreactivity (PSR sort gate)” value is on record as “high polyreactivity”. Take “QVQLVESGGGLVQAGGSLRLSCAASGRTFIRNAMGWYRQAPGKERELVASIRRSGGSTYYADSVKGRFTISRDNAKNTVYLQMNSLKPEDTAVYYSAAVHRFLLGYGYWGQGTQVTVSS”: the “polyreactivity (PSR sort gate)” value is “high polyreactivity”.

As for “QVQLVESGGGLVQAGGSLRLSCAASGSIFGRYAMGWYRQAPGKERELVAAIDGGGSTNYADSVKGRFTISRDNAKNTVYVQMNSLKPEDTAVYYCATEAKAYRYYYRTRHYYYWGQGTQVTVSS”, the “polyreactivity (PSR sort gate)” value is on record as “low polyreactivity”. With “QVKLVESGGGLVQAGGSLRLSCAASGRTFGSYAMGRYRQAPGKERELVAAITTDASTNYADSVKGRFTISRDNAKNTIYLQMNSLKPEDTAVYYCAKRNRTYYGYWGQGTQVTVSS” the entry was “low polyreactivity”; with “QVQLVESGGGLVQAGGSLRISFAASGFFFARYAMGWYRQEPGKERELVAAISGSGARTYYADSVKGRFTNSRDNAKNTVYLQMNSLKPEDTAVYYCAVRGSWYSEHNYWGQGTQVTVSS”, “high polyreactivity”; with “QVQLVESGGGLVQAGGSLRLSCAASGRIFYRNAMGWYRQAPGKERELVAAIRGSGGRTYYADSVKGRFTISRDNAKNTVYLQMNSLKPEDTAVYYCAAYGYYVEHPRGLSGPYDDDYWGQGTQVTVSS”, “low polyreactivity”. Take “QVQLVESGGGLVQAGGSLRLSCAASGSIFDENAMGWYIQAPGKERELVAAITGSGVRTYYADSVKGRFTISRDNAKTTVYLQMNSLKPEDTAVYYCAAETLGVYDYESYTYYWGQRTQVTVSS”: the “polyreactivity (PSR sort gate)” value is on record as “high polyreactivity”. With “QLQLVESGGGLVQAGGSLRLSCAASGSIYWRNAMGWYRQAPGKERELVAAITSGGSTYYADSVKGRFTISRDNAKNTVYLQMNSLKPEDTAVYYCAAGYSYRYGYWGQGTQVTVSS” the entry was “low polyreactivity”; with “QVQLVESGGGLVQAGGSLRLSCAASGSTIDINTKGWYRQAPGKEREFVAAITDSDDSTYYADSVKGRFTISRDNAKNTVYLQMNSLKPEDTAVYYCATDPDYVLYRTAYYEYDYWGQGTQVTVSS”, “low polyreactivity”. With “QVQLVESGGGLVQAGGSLRLSCAASGRIFLSYAMGWYRQAPGKERELVAAITDNGGDTYYADSVKGRFTISRDNAKNTVYLQMNILKPEDTAVYYCAVDGGEFSSYGYWGQGTQVTVSS” the entry was “low polyreactivity”. With “QVQLVESGRGLVQAGGSLRLICAASRSIFSYNAMGWYRQAPGKERELVAAIRRGGGTYYADSVKGRFTISRDNAKNTVYLQMISLKPEDTAVYYCNAVRGNNFLGDGYWGLGTQVTVSS” the entry was “high polyreactivity”; with “QVQLVESGGGLVQAGGSLRLSCAASGFIIVKYAMGWYRQAPGKERELVAAITRGGRTYYADSVKGRFTISRDNAKNTVYLQMNSLKPEDTAVYYCNKARFYDPWLGKYGYKYDYWGQGTQVTVSS”, “high polyreactivity”.
